# Experimental data from patent US8685665 (CHEMO SERO THERAPEUTIC RESEARCH INSTITUTE, dated 2014).
# T1: FRETS-VWF73, P04275
# T1 chain: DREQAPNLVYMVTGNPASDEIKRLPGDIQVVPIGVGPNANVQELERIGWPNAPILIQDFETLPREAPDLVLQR
# Target: T1, FRETS-VWF73, P04275
# Test: not given
row,Binder,"cleaving activity to FRETS-VWF73, relative activity against wild type W688X"
1,ADAMTS-13W688X mutant R326A (protein) AAGGILHLELLVAVGPDVFQAHQEDTERYVLTNLNIGAELLRDPSLGAQFRVHLVKMVILTEPEGAPNITANLTSSLLSVCGWSQTINPEDDTDPGHADLVLYITRFDLELPDGNRQVRGVTQLGGACSPTWSCLITEDTGFDLGVTIAHEIGHSFGLEHDGAPGSGCGPSGHVMASDGAAPRAGLAWSPCSRRQLLSLLSAGRARCVWDPPRPQPGSAGHPPDAQPGLYYSANEQCRVAFGPKAVACTFAAEHLDMCQALSCHTDPLDQSSCSRLLVPLLDGTECGVEKWCSKGRCRSLVELTPIAAVHGRWSSWGPRSPCSRSCGGGVVTRRRQCNNPRPAFGGRACVGADLQAEMCNTQACEKTQLEFMSQQCARTDGQPLRSSPGGASFYHWGAAVPHSQGDALCRHMCRAIGESFIMKRGDSFLDGTRCMPSGPREDGTLSLCVSGSCRTFGCDGRMDSQQVWDRCQVCGGDNSTCSPRKGSFTAGRAREYVTFLTVTPNLTSVYIANHRPLFTHLAVRIGGRYVVAGKMSISPNTTYPSLLEDGRVEYRVALTEDRLPRLEEIRIWGPLQEDADIQVYRRYGEEYGNLTRPDITFTYFQPKPRQAWVW,the elevated enzymatic activity was observed
2,ADAMTS-13W688X mutant R370A (protein) AAGGILHLELLVAVGPDVFQAHQEDTERYVLTNLNIGAELLRDPSLGAQFRVHLVKMVILTEPEGAPNITANLTSSLLSVCGWSQTINPEDDTDPGHADLVLYITRFDLELPDGNRQVRGVTQLGGACSPTWSCLITEDTGFDLGVTIAHEIGHSFGLEHDGAPGSGCGPSGHVMASDGAAPRAGLAWSPCSRRQLLSLLSAGRARCVWDPPRPQPGSAGHPPDAQPGLYYSANEQCRVAFGPKAVACTFAREHLDMCQALSCHTDPLDQSSCSRLLVPLLDGTECGVEKWCSKGACRSLVELTPIAAVHGRWSSWGPRSPCSRSCGGGVVTRRRQCNNPRPAFGGRACVGADLQAEMCNTQACEKTQLEFMSQQCARTDGQPLRSSPGGASFYHWGAAVPHSQGDALCRHMCRAIGESFIMKRGDSFLDGTRCMPSGPREDGTLSLCVSGSCRTFGCDGRMDSQQVWDRCQVCGGDNSTCSPRKGSFTAGRAREYVTFLTVTPNLTSVYIANHRPLFTHLAVRIGGRYVVAGKMSISPNTTYPSLLEDGRVEYRVALTEDRLPRLEEIRIWGPLQEDADIQVYRRYGEEYGNLTRPDITFTYFQPKPRQAWVW,the elevated enzymatic activity was observed
3,ADAMTS-13W688X mutant R568A (protein) AAGGILHLELLVAVGPDVFQAHQEDTERYVLTNLNIGAELLRDPSLGAQFRVHLVKMVILTEPEGAPNITANLTSSLLSVCGWSQTINPEDDTDPGHADLVLYITRFDLELPDGNRQVRGVTQLGGACSPTWSCLITEDTGFDLGVTIAHEIGHSFGLEHDGAPGSGCGPSGHVMASDGAAPRAGLAWSPCSRRQLLSLLSAGRARCVWDPPRPQPGSAGHPPDAQPGLYYSANEQCRVAFGPKAVACTFAREHLDMCQALSCHTDPLDQSSCSRLLVPLLDGTECGVEKWCSKGRCRSLVELTPIAAVHGRWSSWGPRSPCSRSCGGGVVTRRRQCNNPRPAFGGRACVGADLQAEMCNTQACEKTQLEFMSQQCARTDGQPLRSSPGGASFYHWGAAVPHSQGDALCRHMCRAIGESFIMKRGDSFLDGTRCMPSGPREDGTLSLCVSGSCRTFGCDGRMDSQQVWDRCQVCGGDNSTCSPRKGSFTAGRAAEYVTFLTVTPNLTSVYIANHRPLFTHLAVRIGGRYVVAGKMSISPNTTYPSLLEDGRVEYRVALTEDRLPRLEEIRIWGPLQEDADIQVYRRYGEEYGNLTRPDITFTYFQPKPRQAWVW,the elevated enzymatic activity was observed
4,ADAMTS-13W688X mutant R659A (protein) AAGGILHLELLVAVGPDVFQAHQEDTERYVLTNLNIGAELLRDPSLGAQFRVHLVKMVILTEPEGAPNITANLTSSLLSVCGWSQTINPEDDTDPGHADLVLYITRFDLELPDGNRQVRGVTQLGGACSPTWSCLITEDTGFDLGVTIAHEIGHSFGLEHDGAPGSGCGPSGHVMASDGAAPRAGLAWSPCSRRQLLSLLSAGRARCVWDPPRPQPGSAGHPPDAQPGLYYSANEQCRVAFGPKAVACTFAREHLDMCQALSCHTDPLDQSSCSRLLVPLLDGTECGVEKWCSKGRCRSLVELTPIAAVHGRWSSWGPRSPCSRSCGGGVVTRRRQCNNPRPAFGGRACVGADLQAEMCNTQACEKTQLEFMSQQCARTDGQPLRSSPGGASFYHWGAAVPHSQGDALCRHMCRAIGESFIMKRGDSFLDGTRCMPSGPREDGTLSLCVSGSCRTFGCDGRMDSQQVWDRCQVCGGDNSTCSPRKGSFTAGRAREYVTFLTVTPNLTSVYIANHRPLFTHLAVRIGGRYVVAGKMSISPNTTYPSLLEDGRVEYRVALTEDRLPRLEEIRIWGPLQEDADIQVYARYGEEYGNLTRPDITFTYFQPKPRQAWVW,the elevated enzymatic activity was observed

# Target: T2, von Willebrand factor derived from human plasma (human, UniProt P04275 764-2813)
# T2 construct: mature; also called VWF; natural substrate VWF
# Test: ELISA, plasma VWF immobilized on plate, relative to wild type W688X
# Procedure: Each of the purified mutants of Example 3 was evaluated for their binding ability to VWF derived from human plasma immobilized on ELISA plate as described in Non-patent reference 8. The concentration was normalized by sandwich ELISA using the anti-human ADAMTS-13 rabbit polyclonal antibody and an HRP labeled form of the anti-FLAGM2 murine monoclonal antibody (SIGMA CORPORATION) as described above and the VWF binding ability per unit concentration was quantified. Finally, the mutants were evaluated for a relative activity as compared to the specific activity of wild type W688X with no alanine substitution, the specific activity of which is 1.
row,Binder,binding result
1,"ADAMTS-13W688X mutant D343A (enzyme, human, UniProt Q76LX8 75-688, looked up, Disintegrin-like domain mutant; also called D343(10); not shown: C-terminal FLAG tag) AAGGILHLELLVAVGPDVFQAHQEDTERYVLTNLNIGAELLRDPSLGAQFRVHLVKMVILTEPEGAPNITANLTSSLLSVCGWSQTINPEDDTDPGHADLVLYITRFDLELPDGNRQVRGVTQLGGACSPTWSCLITEDTGFDLGVTIAHEIGHSFGLEHDGAPGSGCGPSGHVMASDGAAPRAGLAWSPCSRRQLLSLLSAGRARCVWDPPRPQPGSAGHPPDAQPGLYYSANEQCRVAFGPKAVACTFAREHLDMCQALSCHTDPLAQSSCSRLLVPLLDGTECGVEKWCSKGRCRSLVELTPIAAVHGRWSSWGPRSPCSRSCGGGVVTRRRQCNNPRPAFGGRACVGADLQAEMCNTQACEKTQLEFMSQQCARTDGQPLRSSPGGASFYHWGAAVPHSQGDALCRHMCRAIGESFIMKRGDSFLDGTRCMPSGPREDGTLSLCVSGSCRTFGCDGRMDSQQVWDRCQVCGGDNSTCSPRKGSFTAGRAREYVTFLTVTPNLTSVYIANHRPLFTHLAVRIGGRYVVAGKMSISPNTTYPSLLEDGRVEYRVALTEDRLPRLEEIRIWGPLQEDADIQVYRRYGEEYGNLTRPDITFTYFQPKPRQAWVW",binds
2,"ADAMTS-13W688X mutant D480A (enzyme, human, UniProt Q76LX8 75-688, looked up, Cysteine-rich domain mutant; also called D480(24); not shown: C-terminal FLAG tag) AAGGILHLELLVAVGPDVFQAHQEDTERYVLTNLNIGAELLRDPSLGAQFRVHLVKMVILTEPEGAPNITANLTSSLLSVCGWSQTINPEDDTDPGHADLVLYITRFDLELPDGNRQVRGVTQLGGACSPTWSCLITEDTGFDLGVTIAHEIGHSFGLEHDGAPGSGCGPSGHVMASDGAAPRAGLAWSPCSRRQLLSLLSAGRARCVWDPPRPQPGSAGHPPDAQPGLYYSANEQCRVAFGPKAVACTFAREHLDMCQALSCHTDPLDQSSCSRLLVPLLDGTECGVEKWCSKGRCRSLVELTPIAAVHGRWSSWGPRSPCSRSCGGGVVTRRRQCNNPRPAFGGRACVGADLQAEMCNTQACEKTQLEFMSQQCARTDGQPLRSSPGGASFYHWGAAVPHSQGAALCRHMCRAIGESFIMKRGDSFLDGTRCMPSGPREDGTLSLCVSGSCRTFGCDGRMDSQQVWDRCQVCGGDNSTCSPRKGSFTAGRAREYVTFLTVTPNLTSVYIANHRPLFTHLAVRIGGRYVVAGKMSISPNTTYPSLLEDGRVEYRVALTEDRLPRLEEIRIWGPLQEDADIQVYRRYGEEYGNLTRPDITFTYFQPKPRQAWVW",binds
3,"ADAMTS-13W688X mutant E327A (enzyme, human, UniProt Q76LX8 75-688, looked up, Disintegrin-like domain mutant; also called E327(7); E327 mutant; not shown: C-terminal FLAG tag) AAGGILHLELLVAVGPDVFQAHQEDTERYVLTNLNIGAELLRDPSLGAQFRVHLVKMVILTEPEGAPNITANLTSSLLSVCGWSQTINPEDDTDPGHADLVLYITRFDLELPDGNRQVRGVTQLGGACSPTWSCLITEDTGFDLGVTIAHEIGHSFGLEHDGAPGSGCGPSGHVMASDGAAPRAGLAWSPCSRRQLLSLLSAGRARCVWDPPRPQPGSAGHPPDAQPGLYYSANEQCRVAFGPKAVACTFARAHLDMCQALSCHTDPLDQSSCSRLLVPLLDGTECGVEKWCSKGRCRSLVELTPIAAVHGRWSSWGPRSPCSRSCGGGVVTRRRQCNNPRPAFGGRACVGADLQAEMCNTQACEKTQLEFMSQQCARTDGQPLRSSPGGASFYHWGAAVPHSQGDALCRHMCRAIGESFIMKRGDSFLDGTRCMPSGPREDGTLSLCVSGSCRTFGCDGRMDSQQVWDRCQVCGGDNSTCSPRKGSFTAGRAREYVTFLTVTPNLTSVYIANHRPLFTHLAVRIGGRYVVAGKMSISPNTTYPSLLEDGRVEYRVALTEDRLPRLEEIRIWGPLQEDADIQVYRRYGEEYGNLTRPDITFTYFQPKPRQAWVW",binds
4,"ADAMTS-13W688X mutant R488A (enzyme, human, UniProt Q76LX8 75-688, looked up, Cysteine-rich domain mutant; also called R488(26); not shown: C-terminal FLAG tag) AAGGILHLELLVAVGPDVFQAHQEDTERYVLTNLNIGAELLRDPSLGAQFRVHLVKMVILTEPEGAPNITANLTSSLLSVCGWSQTINPEDDTDPGHADLVLYITRFDLELPDGNRQVRGVTQLGGACSPTWSCLITEDTGFDLGVTIAHEIGHSFGLEHDGAPGSGCGPSGHVMASDGAAPRAGLAWSPCSRRQLLSLLSAGRARCVWDPPRPQPGSAGHPPDAQPGLYYSANEQCRVAFGPKAVACTFAREHLDMCQALSCHTDPLDQSSCSRLLVPLLDGTECGVEKWCSKGRCRSLVELTPIAAVHGRWSSWGPRSPCSRSCGGGVVTRRRQCNNPRPAFGGRACVGADLQAEMCNTQACEKTQLEFMSQQCARTDGQPLRSSPGGASFYHWGAAVPHSQGDALCRHMCAAIGESFIMKRGDSFLDGTRCMPSGPREDGTLSLCVSGSCRTFGCDGRMDSQQVWDRCQVCGGDNSTCSPRKGSFTAGRAREYVTFLTVTPNLTSVYIANHRPLFTHLAVRIGGRYVVAGKMSISPNTTYPSLLEDGRVEYRVALTEDRLPRLEEIRIWGPLQEDADIQVYRRYGEEYGNLTRPDITFTYFQPKPRQAWVW",binds
5,"ADAMTS-13W688X mutant R660A (enzyme, human, UniProt Q76LX8 75-688, looked up, Spacer domain mutant; also called R660(68); not shown: C-terminal FLAG tag) AAGGILHLELLVAVGPDVFQAHQEDTERYVLTNLNIGAELLRDPSLGAQFRVHLVKMVILTEPEGAPNITANLTSSLLSVCGWSQTINPEDDTDPGHADLVLYITRFDLELPDGNRQVRGVTQLGGACSPTWSCLITEDTGFDLGVTIAHEIGHSFGLEHDGAPGSGCGPSGHVMASDGAAPRAGLAWSPCSRRQLLSLLSAGRARCVWDPPRPQPGSAGHPPDAQPGLYYSANEQCRVAFGPKAVACTFAREHLDMCQALSCHTDPLDQSSCSRLLVPLLDGTECGVEKWCSKGRCRSLVELTPIAAVHGRWSSWGPRSPCSRSCGGGVVTRRRQCNNPRPAFGGRACVGADLQAEMCNTQACEKTQLEFMSQQCARTDGQPLRSSPGGASFYHWGAAVPHSQGDALCRHMCRAIGESFIMKRGDSFLDGTRCMPSGPREDGTLSLCVSGSCRTFGCDGRMDSQQVWDRCQVCGGDNSTCSPRKGSFTAGRAREYVTFLTVTPNLTSVYIANHRPLFTHLAVRIGGRYVVAGKMSISPNTTYPSLLEDGRVEYRVALTEDRLPRLEEIRIWGPLQEDADIQVYRAYGEEYGNLTRPDITFTYFQPKPRQAWVW",binds
